# According to article PMC9899272, “An engineered variant of MECR reductase reveals indispensability of long-chain acyl-ACPs for mitochondrial respiration” (Nature Communications, 2023):
# Changes are numbered by the printed parent chain. In names and notes the source's numbering stands.
# B1: wild-type human MECR (2E-enoyl-ACP reductase) with C-terminal His-tag (enzyme, UniProt Q9BV79 31-373, looked up)
# chain: ASSYSASAEPARVRALVYGHHGDPAKVVELKNLELAAVRGSDVRVKMLAAPINPSDINMIQGNYGFLPELPAVGGNEGVAQVVAVGSNVTGLKPGDWVIPANAGLGTWRTEAVFSEEALIQVPSDIPLQSAATLGVNPCTAYRMLMDFEQLQPGDSVIQNASNSGVGQAVIQIAAALGLRTINVVRDRPDIQKLSDRLKSLGAEHVITEEELRRPEMKNFFKDMPQPRLALNCVGGKSSTELLRQLARGGTMVTYGGMAKQPVVASVSLLIFKDLKLRGFWLSQWKKDHSPDQFKELILTLCDLIRRGQLTAPACSQVPLQDYQSALEASMKPFISSKQILTM
# notes: the first N-terminal residues of the crystallised protein are A31-A41 (not defined in the maps); the C-terminus is seen till L374, followed by the six-residue His-tag; L374 lies beyond M373, the last visible residue of the earlier structures, and is probably a vector residue before the His-tag; also called wild-type MECR; MECR WT; source: E. coli BL 21 Star (DE3) pLysS, purified (Ni-NTA, …)
# B2: MECR G165Q variant with C-terminal His-tag (enzyme, human, UniProt Q9BV79 31-373, looked up)
# chain: B1 chain with G135Q
# notes: the first N-terminal residues of the crystallised protein are A31-A41 (not defined in the maps); the C-terminus is seen till L374, followed by the six-residue His-tag; L374 is probably a vector residue before the His-tag; also called G165Q MECR; G165Q mutant; source: E. coli BL 21 Star (DE3) pLysS, purified (Ni-NTA, size-exclusion chromatography); not shown: His6, C-terminal, kept
# Assays:
# [1] = substrate: CCC/C=C/C(=O)SCCNC(=O)CCNC(=O)[C@H](O)C(C)(C)COP(=O)(O)OP(=O)(O)OC[C@H]1O[C@@H](n2cnc3c(N)ncnc32)[C@H](O)[C@@H]1OP(=O)(O)O; test: spectrophotometric 2E-enoyl-CoA reductase assay, Michaelis-Menten fit; assay type: biochemical, Homo sapiens; details: 125 µM NADPH, 100 µg bovine serum albumin, 50 mM potassium phosphate pH 7.5, 25 °C
# Description: (§1) spectrophotometric 2E-enoyl-CoA reductase assay, Michaelis-Menten fit on MECR
# [2] = substrate: CCCCC/C=C/C(=O)SCCNC(=O)CCNC(=O)[C@H](O)C(C)(C)COP(=O)(O)OP(=O)(O)OC[C@H]1O[C@@H](n2cnc3c(N)ncnc32)[C@H](O)[C@@H]1OP(=O)(O)O; test: as above; assay type: biochemical, Homo sapiens; details: 125 µM NADPH, 100 µg bovine serum albumin, 50 mM potassium phosphate pH 7.5, 25 °C
# Description: as §1
# [3] = substrate: CCCCCCC/C=C/C(=O)SCCNC(=O)CCNC(=O)[C@H](O)C(C)(C)COP(=O)(O)OP(=O)(O)OC[C@H]1O[C@@H](n2cnc3c(N)ncnc32)[C@H](O)[C@@H]1OP(=O)(O)O; test: as above; assay type: biochemical, Homo sapiens; details: 125 µM NADPH, 100 µg bovine serum albumin, 50 mM potassium phosphate pH 7.5, 25 °C
# Description: as §1
# [4] = molecular target: the molecule itself; test: crystal structure; sitting drop vapor diffusion at +4 °C, 16.82% PEG 6000, 1 M NaCl, 100 mM acetic acid, pH 4.5; trigonal space group P3(1)21; one chain in the asymmetric unit, dimer via a crystallographic 2-fold axis
Protein,Km [1],kcat [1],kcat/Km [1],Km [2],kcat [2],kcat/Km [2],Km [3],kcat [3],kcat/Km [3],stoichiometry N [4]
B1,90.6 ± 26.5 µM,0.99 ± 0.22 s⁻¹,10000 M⁻¹ s⁻¹,23.2 ± 5.4 µM,1.8 ± 0.13 s⁻¹,80000 M⁻¹ s⁻¹,15.9 ± 2.2 µM,0.62 ± 0.02 s⁻¹,40000 M⁻¹ s⁻¹,2
B2,111.2 ± 17.3 µM,3.49 ± 0.33 s⁻¹,30000 M⁻¹ s⁻¹,114.1 ± 16.2 µM,12.4 ± 1.9 s⁻¹,110000 M⁻¹ s⁻¹,8.15 ± 1.54 µM,0.3 ± 0.02 s⁻¹,40000 M⁻¹ s⁻¹,2
